Source: the supplement of paper PMC9112550, “Optimization of the antimicrobial peptide Bac7 by deep mutational scanning” (BMC Biology, 2022)

test system: Escherichia coli TOP10; experiment: shrunken log2 fold change of peptide-encoding DNA abundance (4.5 h post-induction vs induction); higher = less antimicrobial activity (less host growth inhibition); details: time post-induction: 4.5 h; library: site-saturation at positions 5, 18, 19, 20
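Also: peptides expressed intracellularly from a pBAD plasmid library in pooled LB shake-flask culture, induced with 0.3% L-arabinose, DNA abundance read by NGS, three biological replicates, DESeq2 with apeglm shrinkage.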

Sequence | shrunken log2 fold change
RRIRMRPPRLPRPRPRPSVHPRP | -0.0707
RRIRMRPPRLPRPRPRPSVQPRP | 0.296
RRIRMRPPRLPRPRPRPSWKPRP | -0.181
RRIRMRPPRLPRPRPRPTAVPRP | 1.64
RRIRMRPPRLPRPRPRPTCQPRP | -0.049
RRIRMRPPRLPRPRPRPTDVPRP | 0.141
RRIRMRPPRLPRPRPRPTEMPRP | 0.14
RRIRMRPPRLPRPRPRPTFRPRP | -0.091
RRIRMRPPRLPRPRPRPTHPPRP | 0.564
RRIRMRPPRLPRPRPRPTIHPRP | -0.134
RRIRMRPPRLPRPRPRPTKGPRP | 0.258
RRIRMRPPRLPRPRPRPTLVPRP | 0.171
RRIRMRPPRLPRPRPRPTNCPRP | 0.0955
RRIRMRPPRLPRPRPRPTNTPRP | 0.176
RRIRMRPPRLPRPRPRPTPAPRP | 2.13
RRIRMRPPRLPRPRPRPTPNPRP | 0.87
RRIRMRPPRLPRPRPRPTPRPRP | 1.46
RRIRMRPPRLPRPRPRPTRDPRP | 0.314
RRIRMRPPRLPRPRPRPTRYPRP | 0.628
RRIRMRPPRLPRPRPRPTTEPRP | 0.897

Sequence | shrunken log2 fold change
RRIRMRPPRLPRPRPRPTTGPRP | 0.467
RRIRMRPPRLPRPRPRPTWIPRP | 0.0438
RRIRMRPPRLPRPRPRPTYAPRP | 0.0341
RRIRMRPPRLPRPRPRPTYVPRP | -0.197
RRIRMRPPRLPRPRPRPVARPRP | 0.407
RRIRMRPPRLPRPRPRPVDQPRP | 0.0463
RRIRMRPPRLPRPRPRPVDRPRP | 0.278
RRIRMRPPRLPRPRPRPVGEPRP | 0.141
RRIRMRPPRLPRPRPRPVGFPRP | 0.405
RRIRMRPPRLPRPRPRPVGHPRP | 0.193
RRIRMRPPRLPRPRPRPVGRPRP | 0.724
RRIRMRPPRLPRPRPRPVHPPRP | 0.127
RRIRMRPPRLPRPRPRPVHSPRP | 0.0125
RRIRMRPPRLPRPRPRPVIIPRP | -0.331
RRIRMRPPRLPRPRPRPVKDPRP | 0.0812
RRIRMRPPRLPRPRPRPVLPPRP | -0.0643
RRIRMRPPRLPRPRPRPVLSPRP | 0.0984
RRIRMRPPRLPRPRPRPVMQPRP | -0.221
RRIRMRPPRLPRPRPRPVNIPRP | -0.361
RRIRMRPPRLPRPRPRPVNTPRP | 0.0779

Sequence | shrunken log2 fold change
RRIRMRPPRLPRPRPRPVPEPRP | 1.21
RRIRMRPPRLPRPRPRPVQAPRP | 1.26
RRIRMRPPRLPRPRPRPVQGPRP | 0.0203
RRIRMRPPRLPRPRPRPVSLPRP | 0.422
RRIRMRPPRLPRPRPRPVTAPRP | 0.57
RRIRMRPPRLPRPRPRPVVMPRP | -0.0363
RRIRMRPPRLPRPRPRPVVQPRP | -0.0427
RRIRMRPPRLPRPRPRPVWAPRP | 0.466
RRIRMRPPRLPRPRPRPVWCPRP | -0.0672
RRIRMRPPRLPRPRPRPVYNPRP | -0.17
RRIRMRPPRLPRPRPRPWARPRP | 0.306
RRIRMRPPRLPRPRPRPWAVPRP | 0.396
RRIRMRPPRLPRPRPRPWCEPRP | -0.0233
RRIRMRPPRLPRPRPRPWFMPRP | 0.363
RRIRMRPPRLPRPRPRPWFNPRP | -0.243
RRIRMRPPRLPRPRPRPWHYPRP | -0.327
RRIRMRPPRLPRPRPRPWICPRP | 0.0396
RRIRMRPPRLPRPRPRPWIPPRP | -0.205
RRIRMRPPRLPRPRPRPWKHPRP | -0.109
RRIRMRPPRLPRPRPRPWLMPRP | 0.0599
